{"source": "patent US12636342B2", "about": "“TARS derived from Akkermansia muciniphila or fragment thereof, and use thereof” (KOREA RESEARCH INSTITUTE OF BIOSCIENCE AND BIOTECHNOLOGY, priority 2020, dated 2026)", "molecules": {"B1": {"name": "Strep-tagged Akkermansia muciniphila threonyl-tRNA synthetase (Strep-AmTARS) (enzyme)", "chain": "MSEHKERKTLEERQQMSDLERLRHSCAHVLATAICRLWPDAQLAGGPAVDNGFYYDVELDHRISTEDFERIEEEMKKVVKENQVFQKEVISRADAMKMAESGELGALGPRSEPSRFKIDLLNDIPEDEEISLYRNGDFTDLCAGPHVGRTGNCKAFKIMSVASAFYKGDKNRPMLQRIYGTCFPNRTQLDEHLERLEEARRRDHRKLGRELGLFCIDESVGQGLILWKPKGALIRRSLQDFITEELDKLGYSQVYTPNIGKLDLYRTSGHFPYYQESQYAPIPERDAMEKLSQEGASCAELFNGLATGTIEGYMLKPMNCPHHIKIYANDAHSYRDLPVRLAEFGTVYRWEQSGELGGMTRVRGFTQDDAHIFCTPDQLAGEIRQCLGIVKTIFGTLGMTDYRVRLSMRDPESDKYVGSPENWDKAEQALREAAEWLGADYSEEAGEAAFYGPKIDFIVRDAIGREWQLGTVQVDYNLPERFDLHYTGADNKPHRPVMVHRAPFGSMERFTGLLIEHFEGKFPTWLSPEQVRVLPISDKVTDVAAAHRTALAARGVRVTVDETPDKIGAKIRNARLDRVPYMLVLGQREAEDGTVSVRHRDKGDLGAMPFEQFADLVAREIAERHISPVI", "notes": "The tag is put N-terminal from the name 'Strep-AmTARS'; not shown: 2 x Strep tag from vector pEXPR-IBA105"}, "B2": {"name": "EcTARS (U1/U2): Engineered EcTARS incorporating the AmTARS U1 and U2 regions, SEQ ID NO: 18 (protein)", "chain": "MPVITLPDGSQRHYDHAVSPMDVALDIGPGLAKACIAGRVNGELVDACDLIENDAQLSIITAKDEEGLEIIRHSCAHLLGHAIKQLWPHTKMAIGPVIDNGFYYDVDLDRTLTQEDVEALEKRMHELAEKNYDVIKKKVSWHEARETFANRGAESGELGALGPRSEPESYKVSILDENIAHDDKPGLYFHEEYVDMCRGPHVPNMRFCHHFKLMKTAGAYWRGDSNNKMLQRIYGTAWADKKALNAYLQRLEEAAKRDHRKIGKQLDLYHMQEEAPGMVFWHNDGWTIFRELEVFVRSKLKEYQYQEVKGPFMMDRVLWEKTGHWDNYKDAMFTTSSEKLSQEGASCAELFNGLATGTIEGNREYCIKPMNCPGHVQIFNQGLKSYRDLPLRMAEFGSCHRNEPSGSLHGLMRVRGFTQDDAHIFCTEEQIRDEVNGCIRLVYDMYSTFGFEKIVVKLSTRPEKRIGSDEMWDRAEADLAVALEENNIPFEYQLGEGAFYGPKIEFTLYDCLDRAWQCGTVQLDFSLPSRLSASYVGEDNERKVPVMIHRAILGSMERFIGILTEEFAGFFPTWLAPVQVVIMNITDSQSEYVNELTQKLSNAGIRVKADLRNEKIGFKIREHTLRRVPYMLVCGDKEVESGKVAVRTRRGKDLGSMDVNEVIEKLQQEIRSRSLKQLEE", "modifications": "EcTARS(U1/U2)"}}, "key": {"TLR4-FLAG": {"target": "T1, TLR4-FLAG (UniProt O00206 24-839, limits assumed)", "T1 construct": "not shown: FLAG tag", "T1 sequence (O00206 24-839 limits assumed)": "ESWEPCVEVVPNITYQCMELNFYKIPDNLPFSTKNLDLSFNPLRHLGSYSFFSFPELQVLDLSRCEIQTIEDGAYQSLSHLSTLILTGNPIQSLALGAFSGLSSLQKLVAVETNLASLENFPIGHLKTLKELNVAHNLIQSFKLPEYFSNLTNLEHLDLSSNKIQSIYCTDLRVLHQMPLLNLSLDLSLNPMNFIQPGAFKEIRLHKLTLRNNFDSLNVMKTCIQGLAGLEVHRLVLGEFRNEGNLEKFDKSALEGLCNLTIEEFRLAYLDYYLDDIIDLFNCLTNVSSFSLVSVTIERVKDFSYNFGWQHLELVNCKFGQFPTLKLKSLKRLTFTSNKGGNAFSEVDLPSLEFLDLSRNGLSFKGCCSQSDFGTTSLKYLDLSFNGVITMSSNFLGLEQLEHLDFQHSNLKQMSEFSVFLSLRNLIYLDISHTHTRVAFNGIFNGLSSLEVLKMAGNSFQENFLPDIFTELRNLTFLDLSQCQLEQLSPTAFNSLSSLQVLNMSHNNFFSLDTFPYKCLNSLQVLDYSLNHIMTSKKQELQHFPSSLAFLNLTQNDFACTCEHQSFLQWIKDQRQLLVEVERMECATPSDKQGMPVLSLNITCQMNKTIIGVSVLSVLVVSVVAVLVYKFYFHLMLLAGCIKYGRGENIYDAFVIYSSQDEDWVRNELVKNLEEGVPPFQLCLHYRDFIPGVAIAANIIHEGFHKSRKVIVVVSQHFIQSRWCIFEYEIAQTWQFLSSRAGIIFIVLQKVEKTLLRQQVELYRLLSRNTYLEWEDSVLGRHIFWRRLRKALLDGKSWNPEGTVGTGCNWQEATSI", "experiment": "Strep pull-down from HEK 293T cells co-expressing Strep-AmTARS and TLR4-FLAG, immunoblot"}, "[1]": {"target": "T2, mouse TLR2 on bone marrow-derived macrophages (BMDMs), Q9QUN7", "T2 chain": "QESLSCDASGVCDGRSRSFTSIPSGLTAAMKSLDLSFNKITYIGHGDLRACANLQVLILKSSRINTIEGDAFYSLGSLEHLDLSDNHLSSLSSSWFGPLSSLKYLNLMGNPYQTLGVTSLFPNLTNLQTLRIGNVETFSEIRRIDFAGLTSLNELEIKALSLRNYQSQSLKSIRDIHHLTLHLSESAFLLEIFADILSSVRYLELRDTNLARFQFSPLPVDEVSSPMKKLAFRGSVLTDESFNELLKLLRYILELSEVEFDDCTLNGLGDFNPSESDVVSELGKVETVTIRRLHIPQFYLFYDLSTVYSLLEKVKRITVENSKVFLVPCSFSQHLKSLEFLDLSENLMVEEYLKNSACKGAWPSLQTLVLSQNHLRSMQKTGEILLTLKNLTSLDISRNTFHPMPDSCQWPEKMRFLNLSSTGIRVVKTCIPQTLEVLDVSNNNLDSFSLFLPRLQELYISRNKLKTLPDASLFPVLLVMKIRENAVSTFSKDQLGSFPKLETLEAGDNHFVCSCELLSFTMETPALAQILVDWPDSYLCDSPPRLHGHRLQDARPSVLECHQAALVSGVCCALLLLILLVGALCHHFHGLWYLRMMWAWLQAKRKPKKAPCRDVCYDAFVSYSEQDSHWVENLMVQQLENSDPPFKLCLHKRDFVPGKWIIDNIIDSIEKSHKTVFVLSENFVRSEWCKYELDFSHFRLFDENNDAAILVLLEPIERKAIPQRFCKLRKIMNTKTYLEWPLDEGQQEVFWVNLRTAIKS"}, "[2]": {"test_system": "mouse bone marrow-derived macrophages (BMDMs)", "experiment": "ELISA of immune cytokine secretion in BMDMs under normal conditions", "type": "cell-based", "conditions": "normal (non-inflammatory) conditions, 24 h", "experimental": "Specifically, mouse bone marrow-derived macrophages (BMDMs) as mouse-derived immune cells were extracted from the mouse thighbone and shinbone, and then cultured in DMEM containing 10% fetal bovine serum (FBS) and antibiotics. Human macrophages (THP1) as human-derived immune cells were cultured in RPMI media containing 10% FBS and antibiotics.\nThe cultured cells were treated with AmTARS at 0.1 μM, 0.2 μM, and 0.5 μM for 24 h to obtain cell cultures. For cell removal, the media were centrifuged at 500×g for 10 min to obtain supernatants, which were then analyzed using an ELISA set (mouse interleukin (IL)-6, mouse IL-10, mouse tumor necrosis factor (TNF)-α, human IL-6, human IL-10, human TNF-α; BD Biosciences) to investigate the secretion of mouse- and human-derived immune cytokines. […]"}, "BMDMs from TLR2-KO mouse": {"test_system": "BMDMs from TLR2-KO mouse", "experiment": "IL-10 production in BMDMs from TLR2 knock-out mice", "type": "cell-based", "from_the_text": "The TLR2-dependent immune function of AmTARS was further corroborated using TLR2 knock-out (KO) mice. […] However, IL-10 production by […] (U1/U2) was abolished in BMDMs from TLR2-KO mice, providing further evidence that AmTARS regulates host immune cells via its unique regions in a TLR2-dependent manner (FIG. 28D)."}}, "data": [{"molecule": "B1", "values": [{"measurement": "binding result", "setting": "TLR4-FLAG", "result": "no binding"}, {"measurement": "activation of PI3K and AKT, and phosphorylation of GSK3β at Ser9 (western blot) in BMDMs", "setting": "[1]", "result": "AmTARS activated PI3K and AKT, and subsequently inhibited GSK3β activity via AKT-mediated phosphorylation at Ser9, in BMDMs"}]}, {"molecule": "B2", "values": [{"measurement": "secretion/production of IL-10", "setting": "[2]", "result": "conferred the ability to trigger IL-10 production"}, {"measurement": "IL-10 production", "setting": "BMDMs from TLR2-KO mouse", "result": "abolished"}]}]}
